In patent US20050176069A1 (PHARMACIA AND UPJOHN, published 2005):
Where “and” joins values, the source holds several entries; their conditions need not be identical. Equal entries are not always repeated. Where no end group is shown, it is not given here. [ ]: non-standard residue; d: D form. Tyr(3-I) = N[C@@H](Cc1ccc(O)c(I)c1)C(=O)O; pGlu = O=C1CC[C@@H](C(=O)O)N1; Nle = CCCC[C@H](N)C(=O)O

T1: CEGPCR4 (C. elegans)
T1 chain: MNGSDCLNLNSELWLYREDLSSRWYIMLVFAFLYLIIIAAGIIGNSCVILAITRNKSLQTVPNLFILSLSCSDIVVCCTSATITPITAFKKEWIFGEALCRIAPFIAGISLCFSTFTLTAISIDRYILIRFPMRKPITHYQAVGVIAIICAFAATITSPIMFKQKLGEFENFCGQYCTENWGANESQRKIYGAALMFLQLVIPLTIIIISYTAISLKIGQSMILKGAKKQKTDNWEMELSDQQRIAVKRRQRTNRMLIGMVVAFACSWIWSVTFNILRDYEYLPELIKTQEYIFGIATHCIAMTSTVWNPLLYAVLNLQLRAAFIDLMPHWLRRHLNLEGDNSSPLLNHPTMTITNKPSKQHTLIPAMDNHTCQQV

T2: CEGPCR7 (C. elegans), Q18534
T2 chain: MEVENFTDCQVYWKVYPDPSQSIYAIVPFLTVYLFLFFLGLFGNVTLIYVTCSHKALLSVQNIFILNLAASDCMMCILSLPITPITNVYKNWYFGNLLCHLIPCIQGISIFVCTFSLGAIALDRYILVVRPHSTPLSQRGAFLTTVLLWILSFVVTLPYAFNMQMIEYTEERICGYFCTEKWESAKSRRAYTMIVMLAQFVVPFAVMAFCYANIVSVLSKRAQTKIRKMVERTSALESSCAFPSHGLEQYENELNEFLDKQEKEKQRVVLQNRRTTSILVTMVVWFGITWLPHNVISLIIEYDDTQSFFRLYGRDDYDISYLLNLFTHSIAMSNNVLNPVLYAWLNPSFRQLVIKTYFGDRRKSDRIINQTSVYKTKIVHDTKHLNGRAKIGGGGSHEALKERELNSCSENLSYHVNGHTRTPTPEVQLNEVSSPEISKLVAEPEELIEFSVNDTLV

T3: CEGPCR12h (C. elegans)
T3 chain: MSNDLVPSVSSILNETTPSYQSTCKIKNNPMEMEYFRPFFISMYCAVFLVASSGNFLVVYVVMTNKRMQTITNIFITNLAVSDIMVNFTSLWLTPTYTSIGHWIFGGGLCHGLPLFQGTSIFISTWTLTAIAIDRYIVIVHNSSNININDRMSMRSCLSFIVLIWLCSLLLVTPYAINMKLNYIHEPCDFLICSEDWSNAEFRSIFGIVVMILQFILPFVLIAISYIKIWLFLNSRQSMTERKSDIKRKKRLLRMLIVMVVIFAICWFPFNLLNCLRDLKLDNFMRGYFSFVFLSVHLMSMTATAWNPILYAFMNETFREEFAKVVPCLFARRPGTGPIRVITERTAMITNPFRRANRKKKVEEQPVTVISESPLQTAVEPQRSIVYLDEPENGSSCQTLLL

T4: CEGPCR3 (C. elegans, UniProt P90745 1-376)
T4 sequence: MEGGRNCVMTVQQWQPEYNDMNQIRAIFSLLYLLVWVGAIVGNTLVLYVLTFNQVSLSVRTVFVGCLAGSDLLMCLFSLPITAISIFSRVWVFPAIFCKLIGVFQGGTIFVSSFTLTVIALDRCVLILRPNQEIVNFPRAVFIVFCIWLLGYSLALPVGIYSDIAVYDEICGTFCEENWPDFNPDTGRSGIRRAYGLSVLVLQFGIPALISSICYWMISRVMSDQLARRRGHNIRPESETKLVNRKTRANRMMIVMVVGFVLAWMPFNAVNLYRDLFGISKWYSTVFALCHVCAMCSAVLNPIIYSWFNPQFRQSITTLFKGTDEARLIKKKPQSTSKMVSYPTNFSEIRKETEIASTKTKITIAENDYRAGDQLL

T5: CEGPCR4 (C. elegans)
T5 construct: Expressed in CHO cells
T5 chain: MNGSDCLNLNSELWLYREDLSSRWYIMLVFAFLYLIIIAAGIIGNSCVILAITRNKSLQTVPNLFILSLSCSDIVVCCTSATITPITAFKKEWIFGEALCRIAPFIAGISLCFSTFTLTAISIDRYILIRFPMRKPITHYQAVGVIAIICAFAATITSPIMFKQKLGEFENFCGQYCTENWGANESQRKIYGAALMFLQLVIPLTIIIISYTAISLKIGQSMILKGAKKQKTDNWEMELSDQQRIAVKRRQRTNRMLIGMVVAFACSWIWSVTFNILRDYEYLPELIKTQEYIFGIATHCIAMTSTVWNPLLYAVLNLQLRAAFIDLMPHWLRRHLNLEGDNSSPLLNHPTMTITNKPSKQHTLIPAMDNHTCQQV

B1: p…-NH2 (leucomyosuppressin) (peptide)
peptide: [pGlu]DVDHVFLRF-NH2
SMILES: CC(C)C[C@H](NC(=O)[C@H](Cc1ccccc1)NC(=O)[C@@H](NC(=O)[C@H](Cc1c[nH]cn1)NC(=O)[C@H](CC(=O)O)NC(=O)[C@@H](NC(=O)[C@H](CC(=O)O)NC(=O)[C@@H]1CCC(=O)N1)C(C)C)C(C)C)C(=O)N[C@@H](CCCNC(=N)N)C(=O)N[C@@H](Cc1ccccc1)C(N)=O
B2: 3-Iodo-Y-GVLRF-NH2 (peptide)
peptide: [Tyr(3-I)]GVLRF-NH2
modifications: N-terminus assumed
SMILES: CC(C)C[C@H](NC(=O)[C@@H](NC(=O)CNC(=O)[C@@H](N)Cc1ccc(O)c(I)c1)C(C)C)C(=O)N[C@@H](CCCNC(=N)N)C(=O)N[C@@H](Cc1ccccc1)C(N)=O
notes: Synthetic
B3: 3-Iodo-Y-VPGVLRF-NH2 (peptide)
peptide: [Tyr(3-I)]VPGVLRF-NH2
modifications: N-terminus assumed
SMILES: CC(C)C[C@H](NC(=O)[C@@H](NC(=O)CNC(=O)[C@@H]1CCCN1C(=O)[C@@H](NC(=O)[C@@H](N)Cc1ccc(O)c(I)c1)C(C)C)C(C)C)C(=O)N[C@@H](CCCNC(=N)N)C(=O)N[C@@H](Cc1ccccc1)C(N)=O
notes: Synthetic
B4: ILNleRF-NH2 (peptide)
peptide: IL[Nle]RF-NH2
modifications: N-terminus assumed
SMILES: CCCC[C@H](NC(=O)[C@H](CC(C)C)NC(=O)[C@@H](N)[C@@H](C)CC)C(=O)N[C@@H](CCCNC(=N)N)C(=O)N[C@@H](Cc1ccccc1)C(N)=O
notes: Synthetic
B5: VLRF-NH2 (peptide)
peptide: VLRF-NH2
notes: also called C-terminal tetrapeptide VLRF-NH2
B6: 3-Iodo-Y-DVPGVLRF-NH2 (peptide)
peptide: [Tyr(3-I)]DVPGVLRF-NH2
modifications: also: 125I in the radiolabelled probe
notes: N-terminally iodo-Tyr-extended flp18 analog
B7: 3-Iodo-Y-PGVLRF-NH2 (peptide)
peptide: [Tyr(3-I)]PGVLRF-NH2
modifications: N-terminus assumed
SMILES: CC(C)C[C@H](NC(=O)[C@@H](NC(=O)CNC(=O)[C@@H]1CCCN1C(=O)[C@@H](N)Cc1ccc(O)c(I)c1)C(C)C)C(=O)N[C@@H](CCCNC(=N)N)C(=O)N[C@@H](Cc1ccccc1)C(N)=O
notes: Synthetic; also called 3-Ioda-Y-PGVLRF-NH2

Target: T1, CEGPCR4 (C. elegans)
Assay: competition binding assay, CEGPCR4/CHO membranes, vs [125I-Y]DVPGVLRF-NH2

| Binder | IC50 [nM] |
| --- | --- |
| GMPGVLRF-NH2 [GMPGVLRF-NH2 (AF20)] | 0.5 to 10 |
| TDVDHVFLRF-NH2 […-NH2 (dromyosuppressin)] | 50000 to 500000 |
| GDVPGVLRF-NH2 […-NH2 (AF4)] | 0.5 to 10 |
| B1 | 60000 to 900000 |
| AVPGVLRF-NH2 [AVPGVLRF-NH2 (AF3)] | 0.5 to 10 |
| PDVDHVFLRF-NH2 […-NH2 (SchistoFLRFa)] | 60000 to 900000 |

Target: T2, CEGPCR7 (C. elegans), Q18534
Assay: cell-based or functional assay

| Binder | AF9-induced [35S]GTPγS binding, cells kept at 37° C. (third of three experiments; no stimulation in the other two) [fold] | AF9-induced [35S]GTPγS binding, cooling (28° C.) protocol [fold] | EC50, GTPγS assay [nM] |
| --- | --- | --- | --- |
| GLGPRPLRF-NH2 […-NH2 (AF9)] | 1.4 | 2.6 | 207 |

Target: T3, CEGPCR12h (C. elegans)
Assay: cell-based or functional assay

| Binder | EC50, [35S]GTPγS assay [nM] |
| --- | --- |
| PDVDHVFLRF-NH2 […-NH2 (SchistoFLRFa)] | 330 |

What follows are binders tested against T4, CEGPCR3 (assay: cell-based or functional assay).

| Binder | EC50, GTPγS assay [nM] |
| --- | --- |
| GGPQGPLRF-NH2 [GGPQGPLRF-NH2] | 152 |
| GNSFLRF-NH2 (also called GNSFLRFamide) [GNSFLRF-NH2] | 7900 |
| GPSGPLRF-NH2 [GPSGPLRF-NH2] | 422 |

Target: T5, CEGPCR4
Assay: competition binding assay, CEGPCR4/CHO membranes, vs [125I-Y]DVPGVLRF-NH2

| Binder | IC50 |
| --- | --- |
| SAEPFGTMRF-NH2 [SAEPFGTMRF-NH2] | 50000 to 500000 nM |
| B2 | 1 to 60 nM |
| SEVPGVLRF-NH2 [SEVPGVLRF-NH2] | 0.5 to 10 nM |
| GGPQGPLRF-NH2 [GGPQGPLRF-NH2] | 50000 to 500000 nM |
| YDVPGVLRF-NH2 [Y-DVPGVLRF-NH2] | 1 to 60 nM |
| TNRNFLRF-NH2 [TNRNFLRF-NH2 (Lobster peptide II)] | 50000 to 500000 nM |
| SDNFMRF-NH2 [SDNFMRF-NH2] | 50000 to 500000 nM |
| PDNFMRF-NH2 [PDNFMRF-NH2] | 50000 to 500000 nM |
| ASPSFIRF-NH2 [ASPSFIRF-NH2] | 0.5 to 10 nM |
| B3 | 1 to 60 nM |
| PGVLRF-NH2 [PGVLRF-NH2] | 1 to 60 nM |
| YGVLRF-NH2 (Synthetic) [Y-GVLRF-NH2] | 1 to 60 nM |
| SPLGTMRF-NH2 [SPLGTMRF-NH2] | 50000 to 500000 nM |
| VPGVLRF-NH2 [VPGVLRF-NH2] | 1 to 60 nM |
| YPGVLRF-NH2 (Synthetic) [Y-PGVLRF-NH2] | 1 to 60 nM |
| B4 | 60000 to 900000 nM |

| Binder | IC50 |
| --- | --- |
| B5 | ~400 nM |
| Ac-GVLRF-NH2 [Ac-GVLRF-NH2] | 1 to 60 nM |
| GVLRF-NH2 [GVLRF-NH2] | 1 to 60 nM |
| GNSFLRF-NH2 (also called GNSFLRFamide) [GNSFLRF-NH2] | 60000 to 900000 nM |
| DVPGVLRF-NH2 [DVPGVLRF-NH2] | 0.5 to 10 nM and 1 to 60 nM |
| YVPGVLRF-NH2 (Synthetic) [Y-VPGVLRF-NH2] | 1 to 60 nM |
| EIVFHQISPIFFRF-NH2 [EIVFHQISPIFFRF-NH2] | 50000 to 500000 nM |
| Ac-VPGVLRF-NH2 [Ac-VPGVLRF-NH2] | 1 to 60 nM |
| DFDGAMPGVLRF-NH2 [DFDGAMPGVLRF-NH2] | 0.5 to 10 nM |
| B6 | 1 to 60 nM |
| KPNFLRF-NH2 [KPNFLRF-NH2] | 60000 to 900000 nM |
| KSVPGVLRF-NH2 [KSVPGVLRF-NH2] | 0.5 to 10 nM |
| NGAPQPFVRF-NH2 [NGAPQPFVRF-NH2] | 50000 to 500000 nM |
| B7 | 1 to 60 nM |
| EIPGVLRF-NH2 [EIPGVLRF-NH2] | 0.5 to 10 nM |
